Drawing on US20250368745A1 (published 2025), this text covers Kd for 15 molecules.

Positions count from the first letter of the chain named.

T1: cynomolgus IL-18BP (cynomolgus monkey)
T1 construct: also called cyno IL-18BP; cyIL-18BP
T1 chain: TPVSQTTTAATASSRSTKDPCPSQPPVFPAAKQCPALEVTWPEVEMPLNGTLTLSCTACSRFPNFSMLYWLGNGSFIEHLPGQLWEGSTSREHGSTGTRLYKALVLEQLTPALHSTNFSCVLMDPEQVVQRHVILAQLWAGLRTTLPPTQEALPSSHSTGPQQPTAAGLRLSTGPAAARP

T2: human IL-18BP (human, UniProt O95998 31-194)
T2 construct: UniProt printed as 095998; also called hIL-18BP
T2 sequence: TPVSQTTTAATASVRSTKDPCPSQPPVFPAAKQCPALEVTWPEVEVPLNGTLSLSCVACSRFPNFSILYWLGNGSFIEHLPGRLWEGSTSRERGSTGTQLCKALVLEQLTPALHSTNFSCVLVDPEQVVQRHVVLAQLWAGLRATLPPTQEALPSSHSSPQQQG

B1: SA301a HC-I51E (antibody, name in Kabat numbering, V domains shown)
VH: QVQLQESGPGLVKPSQTLSLTCTVSGYSITSDYNSHWIRQPPGKGLEWIGYEHYSGSTNYNPSLKSRVTISRDTSKNQFSLKLSSVTAADTAVYYCARNYGSIYVNYFDYWGQGTLVTVSS
VL: EIVLTQSPATLSLSPGERATLSCSASSSVSYMYWYQQKPGQAPRPLIYRTSNLASGIPARFSGSGSGTDFTLTISSLEPEDFAVYYCQQYHSYPTFGGGTKVEIK
notes: IgG1 kappa
B2: SA301a HC-I51G (antibody, name in Kabat numbering, V domains shown)
VH: B1 VH with E52G
VL: B1 VL
notes: IgG1 kappa
B3: SA301a HC-I51P (antibody, name in Kabat numbering, V domains shown)
VH: B1 VH with E52P
VL: B1 VL
notes: IgG1 kappa
B4: SA301a HC-I51F (antibody, name in Kabat numbering, V domains shown)
VH: B1 VH with E52F
VL: B1 VL
notes: IgG1 kappa
B5: SA301a HC-Y50A (antibody, name in Kabat numbering, V domains shown)
VH: B1 VH with Y51A, E52I
VL: B1 VL
notes: IgG1 kappa
B6: SA301a HC-Y50D (antibody, name in Kabat numbering, V domains shown)
VH: B1 VH with Y51D, E52I
VL: B1 VL
notes: IgG1 kappa
B7: SA301a HC-I51Y (antibody, name in Kabat numbering, V domains shown)
VH: B1 VH with E52Y
VL: B1 VL
notes: IgG1 kappa
B8: SA301a HC-I51S (antibody, name in Kabat numbering, V domains shown)
VH: B1 VH with E52S
VL: B1 VL
notes: IgG1 kappa
B9: SA301a HC-I51K (antibody, name in Kabat numbering, V domains shown)
VH: B1 VH with E52K
VL: B1 VL
notes: IgG1 kappa
B10: SA301a HC-I51L (antibody, name in Kabat numbering, V domains shown)
VH: B1 VH with E52L
VL: B1 VL
notes: IgG1 kappa
B11: SA301a HC-I51M (antibody, name in Kabat numbering, V domains shown)
VH: B1 VH with E52M
VL: B1 VL
notes: IgG1 kappa
B12: SA301a HC-I51T (antibody, name in Kabat numbering, V domains shown)
VH: B1 VH with E52T
VL: B1 VL
notes: IgG1 kappa
B13: SA301a HC-Y50E (antibody, name in Kabat numbering, V domains shown)
VH: B1 VH with Y51E, E52I
VL: B1 VL
notes: IgG1 kappa
B14: SA301a HC-I51V (antibody, name in Kabat numbering, V domains shown)
VH: B1 VH with E52V
VL: B1 VL
notes: IgG1 kappa
B15: SA301a HC-I51R (antibody, name in Kabat numbering, V domains shown)
VH: B1 VH with E52R
VL: B1 VL
notes: IgG1 kappa

The first assay deals with T1, cynomolgus IL-18BP. The assay can be described thus: BLI, apparent KD. (Biolayer interferometry detects binding as a change in optical thickness at a sensor tip.)
B1: the Kd was found to be 0.95 nM.

With B2, the Kd stood at 0.87 nM.

In the case of B3, the Kd stood at 1.93 nM.

As for B4, the Kd is 1.55 nM.

For the molecule B5, the Kd amounted to 3.8 nM.

B6: the Kd amounted to 16.5 nM.

In the case of B7, the Kd amounted to 1.27 nM.

B8: the Kd turned out to be 0.82 nM.

Take B9: the Kd came out at 0.59 nM.

For the molecule B10, the Kd is 0.64 nM.

For B11, the Kd stood at 0.62 nM.

On to B12, for which the Kd amounted to 0.78 nM.

Regarding B13, the Kd turned out to be 8.97 nM.

Turning to B14, the Kd was determined as 0.55 nM.

Consider B15, for which the Kd was 1.57 nM.

A further assay has as its target T2, human IL-18BP. The assay can be described thus: BLI, apparent KD.
For the molecule B1, the Kd was 1.53 nM.

Take B2: the Kd is 0.92 nM.

With B3, the Kd was 3.73 nM.

Regarding B4, the Kd was found to be 2.38 nM.

For B5, the Kd turned out to be 2.97 nM.

With B6, the Kd amounted to 5.28 nM.

With B7, the Kd came to 1.46 nM.

In the case of B8, the Kd came to 0.57 nM.

B9: the Kd amounted to 0.49 nM.

B10: the Kd was 0.69 nM.

In the case of B11, the Kd worked out at 0.56 nM.

Regarding B12, the Kd came to 0.67 nM.

As for B13, the Kd came out at 3.44 nM.

As to B14, the Kd is 0.3 nM.

On to B15, for which the Kd stood at 2 nM.
